Results published in patent US12642846B2.

Molecular target: ZIKV sE-WT protein (Zika virus)
Test: SPR (BIOCORE8000), sE amine-coupled on CM5 chip, antibody as mobile phase

Substance: 2A10G6 antibody
- Kd: 9.13 nM
